Reference: US20210268016A1

Target: recombinant full-length human PrP^C (AA23-231) (human) (UniProt P04156)

Poly-d-glutamic acid sodium salt (peptide)
IC50: > 1 µM
